What was measured:
[1] = tested on: depression-induced animal model (WT/RSD); test: Depression behaviour tests (Open field, Dark & Light, Tail suspension, Force swim) in RSD mice; format: in vivo, mouse; details: 50 mg/kg i.p. twice weekly, vs PBS, FIG. 59A-59D
Procedure: For depression-induced animal model, C57BL/6 mice (Charles River, UK) were used as those with depression by inducing Repeated Social Defeat (RSD) stress for 10 days. Repeated Social Defeat (RSD) stress was induced by placing two male, 6-8 week-old C57BL/6 mice with one male, 6-8 week-old CD-1 mouse (aggressive intruder mouse) in the same cage for 10 days, 2 hours daily. After 10 days, depression of C57BL/6 mice was confirmed through the depression behavior test. To confirm the therapeutic effect of ASM inhibitor (Smpd1 miR RNAi) in the depressed animal model, 6-week-old male C57BL/6 mice were injected with said ASM inhibitor via tail vein injection twice weekly in a dosage of 50 μg/mice for 4 weeks prior to the induction of depression. Four weeks later, behavioral analysis was performed after inducing Repeated Social Defeat (RSD) stress for 10 days, followed by obtaining plasma samples of the mice (FIG. 47A). To determine whether ASM inhibition by Smpd1 miR RNAi injection leads to the improvement of depression in a depression-induced animal model, an Open field test, a Dark & Light test, a Tail suspension test and Force swim test were performed, respectively. For depression-induced animal model, C57BL/6 mice (Charles River, UK) were used as those with depression by inducing Repeated Social Defeat (RSD) stress for 10 days. […]

ASM protein = ASM protein concentration in plasma of APP/PS1 mice (ELISA); format: in vivo, mouse; details: 50 mg/kg i.p. twice weekly, between groups, FIG. 51C
ASM [2] = target: T1, ASM (Mus musculus, UniProt Q04519); test: ASM activity in plasma of ALS animal model (FUS R521C mice); format: in vivo; details: 7-week-old ALS mice, 50 mg/kg i.p. twice weekly, vs PBS; FIG. 56B
T1 construct: from tissue; host or cells: mouse serum/plasma and brain tissue (APP/PS1, RSD-stressed C57BL/6, FUS R521C mice)
T1 sequence (Q04519 45-627): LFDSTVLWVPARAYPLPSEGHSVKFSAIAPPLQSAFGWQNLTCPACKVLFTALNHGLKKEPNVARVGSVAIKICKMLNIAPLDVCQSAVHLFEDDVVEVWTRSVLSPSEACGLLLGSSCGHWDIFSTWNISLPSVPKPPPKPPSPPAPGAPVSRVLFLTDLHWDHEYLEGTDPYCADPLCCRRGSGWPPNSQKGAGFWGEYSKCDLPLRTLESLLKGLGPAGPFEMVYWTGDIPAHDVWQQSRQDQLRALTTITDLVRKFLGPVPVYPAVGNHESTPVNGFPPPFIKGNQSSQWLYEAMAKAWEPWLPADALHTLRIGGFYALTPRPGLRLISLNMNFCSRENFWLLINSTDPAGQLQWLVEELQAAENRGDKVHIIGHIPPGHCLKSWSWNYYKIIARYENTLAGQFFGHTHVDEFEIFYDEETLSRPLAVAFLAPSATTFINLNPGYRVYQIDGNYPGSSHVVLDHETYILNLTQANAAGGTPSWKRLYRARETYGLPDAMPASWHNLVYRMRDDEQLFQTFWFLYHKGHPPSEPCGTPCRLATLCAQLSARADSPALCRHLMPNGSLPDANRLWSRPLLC

ASM [3] = target: T1, ASM; test: ASM activity / concentration level in serum (plasma) and brain tissue of APP/PS1 mice (UPLC); format: in vivo; details: 7-month-old APP/PS1 mice, 50 mg/kg i.p. twice weekly, vs PBS; FIG. 51B
Procedure: More specifically, 3 μl of plasma, brain tissue and fibroblast samples from each mouse were mixed with an ASM activity buffer, and stored at 37° C. The hydrolysis reaction was completed by adding 114 μl of ethanol to the mixed solution, and then the mixed solution was centrifuged. 30 μl of the supernatant was transferred into a glass vial, and then 5 μl was applied to the UPLC system. The ASM concentration level was quantified in comparison with a bodipy (aminoacetaldehyde) combined with sphingomyelin and ceramide. The sphingomyelin and ceramide levels were extracted and quantified according to a known method, by extracting lipid from the sample, resuspending the dried lipid extract in 25 μl of 0.2% Igepal CA-630 (Sigma-Aldrich), and quantifying the concentration level of each lipid using the UPLC system. […] The animal test conducted was approved by the Kyungpook National University Institutional Animal Care and Use Committee (IACUC). Transgenic mouse line overexpressing APPswe (hAPP695swe) and PS1 (presenilin-1M146V) based on C57BL/6 mice (Charles River, UK) were used as Alzheimer's animal models [hereinafter, APP mice: mice overexpressing APPswe, PS1 mice: overexpressing presenilin-1M146V; GlaxoSmithKline]. […] The concentration level of ASM was measured as follows. Specifically, 3μ ? of mouse serum, brain tissue and fibroblast samples were mixed with ASM activity buffer and stored at 37° C. 114 μ ? of ethanol was added to terminate the hydrolysis reaction, followed by centrifugation. […] The ASM concentration levels were quantified by comparison with sphingomyelin and Bodipy (aminoacetaldehyde) conjugated with ceramide. The extraction and quantification of the sphingomyelin and ceramide was carried out by extracting and drying the lipids from the sample according to a known conventional method, and resuspending the dried lipid extract to 25 μl of 0.2% Igepal CA-630 (Sigma-Aldrich), and the concentration levels of each lipid were quantitated using the UPLC system. […] The concentration level of ASM was measured as follows. […]

β-amyloid = β-amyloid deposition in brain tissue of APP/PS1 mice (thioflavin S, immunofluorescence, ELISA); format: in vivo, mouse; details: medulla and hippocampus, 50 mg/kg i.p. twice weekly, vs PBS
Procedure: First, the cerebral cortex and hippocampus tissue of each mouse prepared in Example 1-1 were isolated, and then a tissue fragment was obtained and this was dyed with thioflavin S according to a conventional known method. The results are illustrated in FIG. 3 (cerebral cortex) and FIG. 4 (hippocampus).
Also, immunofluorescence was performed according to a conventional known method using anti-20G10 (mouse, 1:1000) antibody against Aβ42, anti-G30 (rabbit, […]) antibody against Aβ40, anti-Iba-1 (rabbit, 1:500, Wako) antibody, anti-GFAP (rabbit, 1:500, DAKO) antibody and anti-active caspase3 (rabbit, 1:50, Chemicon) antibody. Tissue fragments were observed using a confocal laser scanning microscope equipped with Fluoview SV1000 imaging software (Olympus FV1000, Japan) or an Olympus BX51 microscope, and the percentage of the area of the dyed area with respect to the area of the entire tissue was quantified using Metamorph software (Molecular Devices).
Also, β-amyloid deposition was confirmed using commercially available ELISA kits (Biosource). More specifically, hemispheres of the brain of each mouse were homogenized in a buffer containing 0.02 M of guanidine. Thereafter, ELISA was performed for Aβ40 and Aβ42 according to the manufacturer's instructions.
After fixing the cerebral and hippocampal tissues of the mice, 0.5% thioflavin S (Sigma-Aldrich), anti-20G10 antibodies (mouse, 1:1000) against Aβ42, anti-G30 antibodies (rabbit, […]) against Aβ40, anti-GFAP antibodies (rabbit, 1:500, DAKO), or anti-Iba-1 antibodies (rabbit, 1:500, Wako) were co-cultured. The tissues were analyzed using a laser scanning confocal microscope equipped with Fluoview SV1000 imaging software (Olympus FV1000, Japan) or an Olympus BX51 microscope. Percentage of stained area to total tissue area was quantified and analyzed using Metamorph software (Molecular Devices).
After fixing the mouse brain and hippocampus, 0.5% thioflavin S (Sigma-Aldrich), anti-GFAP (rabbit, 1:500, DAKO), and anti-Iba-1 (rabbit, 1:500, WAKO) were co-cultured together. The regions were analyzed using a laser scanning confocal microscope equipped with Fluoview SV1000 imaging software (Olympus FV1000, Japan) or an Olympus BX51 microscope. Percentage of stained area to total tissue area was quantified and analyzed using Metamorph software (Molecular Devices).
Proteins were extracted from mouse brain and hippocampus, and the amounts of Abeta40 (KHB3481, Invitrogen) and Abeta42 (KHB3441, Invitrogen) were measured using ELISA.

B1: ASM-ab 23A12C3: self-made monoclonal ASM antibody, Koma biotech; heavy chain SEQ ID NO. 29, light chain SEQ ID NO. 30 (antibody)
heavy: MGWSWIFLFLLSGTAGVHSEVQLQQSGPVLVKPGASVKMSCKASGYTFTDYYMNWVKQSHGKSLEWIGVINPYNDGTSYNQKFKGKATLTVDKSSSTAYMELNSLTSEDSAVYYCAREKLYYYGRDYAMDYWGQGTSVTVSSAKTTPPSVYPLAPGSAAQTNSMVTLGCLVKGYFPEPVTVTWNSGSLSSGVHTFPAVLQSDLYTLSSSVTVPSSTWPSQTVTCNVAHPASSTKVDKKIVPRDCGCKPCICTVPEVSSVFIFPPKPKDVLTITLTPKVTCVVVDISKDDPEVQFSWFVDDVEVHTAQTKPREEQINSTFRSVSELPIMHQDWLNGKEFKCRVNSAAFPAPIEKTISKTKGRPKAPQVYTIPPPKEQMAKDKVSLTCMITNFFPEDITVEWQWNGQPAENYKNTQPIMDTDGSYFVYSKLNVQKSNWEAGNTFTCSVLHEGLHNHHTEKSLSHSPGK
light: MSSAQFLGLLLLCFQGTRCDIQMTQTTSSLSASLGDRVTISCRSSQDISNYLNWCQQKPDGTVKLLIYYTSRLHSGVPSRFSGSGSGTDYSLTISNLEQEDIATYFCQQDNTLPYTFGGGTKLEIKRADAAPTVSIFPPSSEQLTSGGASVVCFLNNFYPKDINVKWKIDGSERQNGVLNSWTDQDSKDSTYSMSSTLTLTKDEYERHNSYTCEATHKTSTSPIVKSFNRNEC
modifications: 23A12C3_Heavy chain; 23A12C3_Light chain
notes: self-made monoclonal ASM antibody, Koma biotech; 30
symptoms of depression [1]: significantly improve
plasma ASM protein concentration (ASM protein): no difference
level of ASM activity in the plasma (ASM [2]): remarkably low
level of ASM concentration (ASM activity) in the plasma (ASM [3]): remarkably low
deposition of fibrillar Aβ (thioflavin S) (β-amyloid; FIG. 52A, 52B): significantly lower
deposition of Aβ40 (ELISA) (β-amyloid; FIG. 53A, 53B): significantly lower
deposition of Aβ42 (ELISA) (β-amyloid; FIG. 53A, 53B): significantly lower
